In PMC6239910 (Molecular cell, 2018):
Substitutions are numbered along the chain they refer to. In names and notes the source's numbering stands. Like-named read-outs stand apart in the source and are kept apart here.

Tests used:
[1] = biological target: T1, Ube2D3(C85S) (human, UniProt P61077 1-147, C85S); test: NMR titration
[2] = biological target: T1, Ube2D3(C85S); test: NMR titration; remark: listed apart in the source
[3] = biological target: Ube2D1 (human, UniProt P51668 1-147); test: ITC
Sequence of Ube2D1 (P51668 whole entry): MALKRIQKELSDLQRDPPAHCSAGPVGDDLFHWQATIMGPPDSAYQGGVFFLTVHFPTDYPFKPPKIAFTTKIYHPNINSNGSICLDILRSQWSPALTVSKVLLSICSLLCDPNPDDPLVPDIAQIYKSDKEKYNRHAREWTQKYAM

T1 sequence (P61077 whole entry C85S): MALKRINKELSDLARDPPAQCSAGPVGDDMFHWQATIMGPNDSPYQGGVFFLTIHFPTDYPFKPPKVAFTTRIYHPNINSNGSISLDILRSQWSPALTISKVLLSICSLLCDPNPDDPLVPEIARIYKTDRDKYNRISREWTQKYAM

B1: UHRF2-UBL (residues 1–81) (domain or fragment, UniProt Q96PU4 1-81, looked up)
chain: MWIQVRTIDGSKTCTIEDVSRKATIEELRERVWALFDVRPECQRLFYRGKQLENGYTLFDYDVGLNDIIQLLVRPDPDHLP
- Kd [1]: 215 µM

B2: UHRF1-UBL (residues 1–76) (domain or fragment, human, UniProt Q96T88 1-76, looked up)
chain: MWIQVRTMDGRQTHTVDSLSRLTKVEELRRKIQELFHVEPGLQRLFYRGKQMEDGHTLFDYEVRLNDTIQLLVRQS
- Kd [2]: 15 µM

B3: UHRF1-UBL L65A (domain or fragment, human, UniProt Q96T88 1-76, looked up)
chain: B2 chain with L65A
- binding result [3]: binds

B4: UHRF1-UBL K50R (domain or fragment, human, UniProt Q96T88 1-76, looked up)
chain: B2 chain with K50R
- binding result [3]: binds

B5: UHRF1-UBL W2V (domain or fragment, human, UniProt Q96T88 1-76, looked up)
chain: B2 chain with W2V
- binding result [3]: binds

B6: UHRF1-UBL F59V (domain or fragment, human, UniProt Q96T88 1-76, looked up)
chain: B2 chain with F59V
- binding result [3]: binds
